From paper PMC2040504 come the findings set out here.

This assay has as its target CXCR4 (human (endogenous in CEM)) (UniProt P61073). The assay can be described thus: radioligand binding; competition: 0.25 nM 125I-CXCL12α and a range of concentrations of unlabelled CXCL12 (α, γ or γ-m1) on CEM cells (10^7 cells/ml), 100 µl PBS, 1 h, 4°C; cell-associated radioactivity counted.
Chain of UniProt P61073 (P61073 whole entry): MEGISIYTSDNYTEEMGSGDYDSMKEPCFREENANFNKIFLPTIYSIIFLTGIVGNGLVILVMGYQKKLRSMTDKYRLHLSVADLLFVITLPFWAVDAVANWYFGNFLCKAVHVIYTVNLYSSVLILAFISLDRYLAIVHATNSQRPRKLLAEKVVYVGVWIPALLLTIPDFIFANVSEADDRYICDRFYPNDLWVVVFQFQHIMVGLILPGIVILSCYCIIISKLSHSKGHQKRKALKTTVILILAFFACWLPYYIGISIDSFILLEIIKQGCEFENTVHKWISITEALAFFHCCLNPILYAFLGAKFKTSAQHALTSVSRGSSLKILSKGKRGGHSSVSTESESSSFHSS

As for CXCL12γ (ligand), the IC50 worked out at 350 nM.

In general, IC50 refers to the concentration that gives 50% inhibition.
